Source: patent US20160298120A1 (CHILDREN S HOSPITAL OF PHILADELPHIA, published 2016)

Legend:
ATF2 = target: T1, ATF2 (UniProt P15336 1-505, limits assumed); test: co-immunoprecipitation from cell lysates, blot probed with anti-IRF1
T1 construct: Tested by co-immunoprecipitation with IRF1; no association
T1 sequence (looked up): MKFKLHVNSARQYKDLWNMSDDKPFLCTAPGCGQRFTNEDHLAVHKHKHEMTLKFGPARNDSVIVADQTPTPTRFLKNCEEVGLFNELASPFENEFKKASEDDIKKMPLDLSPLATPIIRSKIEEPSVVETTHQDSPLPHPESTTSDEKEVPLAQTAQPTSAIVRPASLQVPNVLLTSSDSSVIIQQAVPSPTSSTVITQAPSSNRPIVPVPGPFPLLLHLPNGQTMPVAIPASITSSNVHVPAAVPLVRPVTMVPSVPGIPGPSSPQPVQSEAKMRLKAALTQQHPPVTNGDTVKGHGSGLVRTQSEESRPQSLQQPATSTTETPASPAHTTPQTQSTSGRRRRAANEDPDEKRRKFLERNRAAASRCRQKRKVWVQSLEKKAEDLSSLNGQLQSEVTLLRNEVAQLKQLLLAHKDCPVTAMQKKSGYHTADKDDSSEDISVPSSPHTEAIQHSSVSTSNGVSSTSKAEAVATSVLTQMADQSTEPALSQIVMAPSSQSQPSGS

HAT1 = target: T2, HAT1 (UniProt O14929 2-419, limits assumed); test: as above
T2 construct: Tested by co-immunoprecipitation with IRF1; no association
T2 sequence (looked up): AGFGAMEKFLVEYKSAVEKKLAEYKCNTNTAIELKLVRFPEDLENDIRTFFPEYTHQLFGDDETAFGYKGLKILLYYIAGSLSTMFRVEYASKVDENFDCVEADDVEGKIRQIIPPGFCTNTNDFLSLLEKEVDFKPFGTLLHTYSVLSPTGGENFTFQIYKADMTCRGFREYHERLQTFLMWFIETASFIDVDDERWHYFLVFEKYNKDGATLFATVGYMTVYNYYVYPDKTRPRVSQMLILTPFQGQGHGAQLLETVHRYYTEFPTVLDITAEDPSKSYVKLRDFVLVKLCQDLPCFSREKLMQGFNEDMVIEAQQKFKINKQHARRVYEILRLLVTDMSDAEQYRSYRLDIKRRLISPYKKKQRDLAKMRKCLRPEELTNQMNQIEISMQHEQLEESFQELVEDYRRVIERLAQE

B1: Interferon regulatory factor 1 (IRF1) (other, UniProt P10914 1-325, looked up)
chain: MPITRMRMRPWLEMQINSNQIPGLIWINKEEMIFQIPWKHAAKHGWDINKDACLFRSWAIHTGRYKAGEKEPDPKTWKANFRCAMNSLPDIEEVKDQSRNKGSSAVRVYRMLPPLTKNQRKERKSKSSRDAKSKAKRKSCGDSSPDTFSDGLSSSTLPDDHSSYTVPGYMQDLEVEQALTPALSPCAVSSTLPDWHIPVEVVPDSTSDLYNFQVSPMPSTSEATTDEDEEGKLPEDIMKLLEQSEWQPTNVDGKGYLLNEPGVQPTSVYGDFSCKEEPEIDSPGGDIGLSLQRVFTDLKNMDATWLDSLLTPVRLPSIQAIPCAP
notes: Endogenous protein from MonoMac6 lysates, detected with anti-IRF1 on the blot after co-immunoprecipitation
B1: no binding (ATF2); no binding (HAT1).
